This data set deals with T1, EspR (UniProt P9WJB7).
T1 sequence: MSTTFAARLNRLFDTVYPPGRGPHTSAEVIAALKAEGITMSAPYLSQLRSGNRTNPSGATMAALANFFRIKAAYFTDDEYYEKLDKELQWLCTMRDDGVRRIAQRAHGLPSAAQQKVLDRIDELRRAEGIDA
Kind of data set: EMSA.

The values that follow come from paper PMC3315491.

Consider “TCAGGATGACCGTGTCGGGCGGATGCGGCCGACTCCGGGCAACCAGCAGCCAACGGAGATTCGCCGAGAGCCTCCTTTGCTGCCTGGGTCCGCACAGCGCTCGTCAGGCGA (double strand) [espR peak b EMSA probe]”, for which the binding result was “binds”.

As to “ACTTGAGTTCTTCAGCAATGATGCATGCACGACTGTAGACCTGCGACCAAGTCAAGCTGTCAGCAAATCCCTTGGGGTCGGATCCGTAGTCGATGTACGTATATGCAGTGCTGTCAGGCT (double strand) [fadD26 peak probe]”, the binding entry was “binds more weakly”.

Consider “GAAAACCGCCCCAGTTGCGGTGTGCGCTAGTTAACATCGCAACTACATATCAGCAAATCAGGGAGAGGAAACCGTGTCGTTTGTGTTGGTGTCTCCGTCGCA (double strand) [pe_pgrs19 peak probe]”, for which the binding result is on record as “binds”.

As for “GCTCATCGATGTGACCTCCACCGGGCTCCAAGAGCAAACGGTTATCTGTATGTATTTGCTGATCATGGTAGCGACAGTTGTGTCCACAACCAAGTGCAAACCTGAGCGGATT (double strand) [espR peak a EMSA probe]”, the binding result was “binds”.

As for “TGCGTCGGTTAGTCTCTTTTTCGACCTTGGGGCGCGGAGGGTCGTTATGGTGTGTCACAGTGCTTTGCTGTCAAAGGCATTGGCGGTGCCGACCAAGCGACACT (double strand) [rv1490 peak probe]”, the binding result is “binds”.

“ACCTCAACGACAATTTGCCAGAGCTAGTCAGCGACATAGAAGACAAAACACTCCAATGGCATGATCGAGCTTAGCTATGCTCCGGATGTAGCTGGCCGAAGAT (double strand) [rv2929 peak probe]”: the binding result is “binds”.

Take “GCTTGTCCCAAAGCTCTTTCAGGCCGTTGAGCGCGTTTGTGATGAACTCCCACACTTCTCCGAGGGTGCCCTTGATGATGTCCGCCACATCCGAAATGAT (double strand) [espA ORF negative control probe]”: the binding result is reported as “no binding”.
